Source: patent US20140242694A1

Molecular target: CD150 (signaling lymphocyte activation molecule, SLAM) on EBV-infected human B cells, Raji cells or IM-9 cells (human) (UniProt Q13291)
Test: cell-based or functional assay

Chain of UniProt Q13291 (Q13291 21-335): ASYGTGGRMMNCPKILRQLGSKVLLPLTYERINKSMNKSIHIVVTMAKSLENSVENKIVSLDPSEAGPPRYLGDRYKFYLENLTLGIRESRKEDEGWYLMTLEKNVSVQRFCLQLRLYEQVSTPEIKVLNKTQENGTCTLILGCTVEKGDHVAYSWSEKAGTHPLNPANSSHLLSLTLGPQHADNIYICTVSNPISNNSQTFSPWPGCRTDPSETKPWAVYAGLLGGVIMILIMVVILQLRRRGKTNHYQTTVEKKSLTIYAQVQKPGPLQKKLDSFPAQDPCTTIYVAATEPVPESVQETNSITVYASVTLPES

“anti-CD150 mAb (clone IPO-3, Affinity Bioreagents) (antibody)” was tested, and the IL-1A production, mRNA level (real-time RT-PCR) was 55 fold and the IL-1A production, protein level (ELISA) was 23 fold.
